Measured values: patent US6942988

How the values were obtained:
[1] = target: carboxyl-terminal Myc-tagged Ptc-CTD (mouse Ptc with a 140-residue carboxyl-terminal deletion; amino acids 1-1,291) (mouse) (UniProt Q61115); assay: binding of 32P-Shh-N to EcR-293 cells expressing Ptc-CTD without competitor
[2] = target: carboxyl-terminal Myc-tagged Ptc-CTD (mouse Ptc with a 140-residue carboxyl-terminal deletion; amino acids 1-1,291) (mouse) (UniProt Q61115); assay: Scatchard analysis of the high-affinity component of 32P-Shh-N binding to EcR-293 cells expressing Ptc-CTD, 4 C
[3] = target: carboxyl-terminal Myc-tagged Ptc-CTD (mouse Ptc with a 140-residue carboxyl-terminal deletion; amino acids 1-1,291) (mouse) (UniProt Q61115); assay: competition with 0.9 nM 32P-Shh-N for binding to EcR-293 cells expressing Ptc-CTD, 4 C; KI from IC50
[4] = target: carboxyl-terminal Myc-tagged Ptc-CTD (mouse Ptc with a 140-residue carboxyl-terminal deletion; amino acids 1-1,291) (mouse) (UniProt Q61115); assay: Table 1 'Ptc-CTD affinity'; for wild type the dissociation constant (KL), as from the Scatchard analysis of 32P-Shh-N on EcR-293 cells expressing Ptc-CTD

Chain of carboxyl-terminal Myc-tagged Ptc-CTD (mouse Ptc with a 140-residue carboxyl-terminal deletion; amino acids 1-1,291) (mouse) (Q61115 1-1291, stated change not applied): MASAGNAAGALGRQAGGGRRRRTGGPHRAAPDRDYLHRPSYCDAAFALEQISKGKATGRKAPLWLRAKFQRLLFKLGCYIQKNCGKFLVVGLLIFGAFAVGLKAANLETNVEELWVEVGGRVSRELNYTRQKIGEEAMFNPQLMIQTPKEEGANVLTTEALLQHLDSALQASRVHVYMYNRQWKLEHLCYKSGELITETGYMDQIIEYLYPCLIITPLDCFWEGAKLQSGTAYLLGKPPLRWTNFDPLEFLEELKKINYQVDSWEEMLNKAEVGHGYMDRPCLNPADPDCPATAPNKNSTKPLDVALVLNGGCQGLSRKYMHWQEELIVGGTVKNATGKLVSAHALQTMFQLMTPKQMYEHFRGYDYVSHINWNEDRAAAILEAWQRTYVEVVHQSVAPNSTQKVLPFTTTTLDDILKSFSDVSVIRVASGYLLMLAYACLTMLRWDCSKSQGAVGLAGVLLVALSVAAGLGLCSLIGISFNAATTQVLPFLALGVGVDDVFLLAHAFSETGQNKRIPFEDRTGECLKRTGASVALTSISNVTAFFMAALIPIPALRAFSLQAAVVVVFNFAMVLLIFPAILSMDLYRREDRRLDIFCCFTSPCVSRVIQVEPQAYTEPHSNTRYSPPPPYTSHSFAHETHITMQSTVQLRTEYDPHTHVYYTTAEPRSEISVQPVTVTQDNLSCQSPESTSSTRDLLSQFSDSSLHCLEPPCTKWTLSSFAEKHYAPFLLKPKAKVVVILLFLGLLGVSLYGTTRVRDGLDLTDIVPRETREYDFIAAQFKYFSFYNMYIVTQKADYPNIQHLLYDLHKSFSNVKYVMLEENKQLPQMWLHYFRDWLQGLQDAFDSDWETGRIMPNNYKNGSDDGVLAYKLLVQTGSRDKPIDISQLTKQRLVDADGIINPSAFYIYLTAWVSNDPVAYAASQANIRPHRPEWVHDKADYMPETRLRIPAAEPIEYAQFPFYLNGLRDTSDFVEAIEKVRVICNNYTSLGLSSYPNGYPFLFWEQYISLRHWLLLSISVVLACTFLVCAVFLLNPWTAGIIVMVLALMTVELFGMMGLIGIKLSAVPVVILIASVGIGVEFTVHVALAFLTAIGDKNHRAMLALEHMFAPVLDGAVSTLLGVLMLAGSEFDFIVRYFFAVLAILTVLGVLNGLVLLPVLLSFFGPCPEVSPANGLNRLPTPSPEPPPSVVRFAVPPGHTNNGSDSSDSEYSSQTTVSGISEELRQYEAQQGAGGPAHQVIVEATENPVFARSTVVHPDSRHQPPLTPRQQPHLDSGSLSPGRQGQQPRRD

Substance | Ki [3] [nM] | further results
32P-labeled Shh-N protein with a protein kinase A site tag (RRASV) at the carboxy terminus (from UniProt Q62226 25-198) (ligand) |  | percent of input bound in the absence of competitor [1]: 35 % of input; Kd [2]: 0.48 nM
Shh-N SC mutant protein (P42A, K46A, R154A, S157A, S178A, K179A) (from UniProt Q62226 25-198) (ligand) | > 36 | 
Shh-N SF protein (R154A, S157A) (from UniProt Q62226 25-198) (ligand) | 9.1 | 
Shh-N SG protein (S178A, K179A) (from UniProt Q62226 25-198) (ligand) | 4.3 | 
wild-type Sonic hedgehog amino-terminal signaling domain protein (Shh-N), aa 25-198 (from UniProt Q62226 25-198) (ligand) |  | Kd [4]: 0.48 nM

Now from value to substance, other results behind:

Ki [3] [nM] | Substance | further results
1.7 | Shh-N E177A (EA) mutant protein (from UniProt Q62226 25-198) (ligand) | 
0.63 | Shh-N H135A (HA) mutant protein (from UniProt Q62226 25-198) (ligand) | 
1.7 | Shh-N H135A, E177A double mutant (EH) protein (from UniProt Q62226 25-198) (ligand) | 
0.66 | Shh-N SA altered protein (K75A, E76A, Y81A, D105A, N116A, E189A, K195A) (from UniProt Q62226 25-198) (ligand) | 
0.48 | Shh-N SB altered protein (N51A, V52A, T56A, E168A) (from UniProt Q62226 25-198) (ligand) | 
0.84 | Shh-N SD altered protein (E90A, D132A, E138A) (from UniProt Q62226 25-198) (ligand) | 
2.4 | Shh-N SE protein (P42A, K46A) (from UniProt Q62226 25-198) (ligand) | 
